In patent US20240409645A1 (DUALYX, published 2024):

T1: human IL-2 receptor (IL-2Rα/IL-2Rβ/γc) (human, UniProt P01589 22-272; P14784 27-551; P31785 23-369)
T1 sequence 1: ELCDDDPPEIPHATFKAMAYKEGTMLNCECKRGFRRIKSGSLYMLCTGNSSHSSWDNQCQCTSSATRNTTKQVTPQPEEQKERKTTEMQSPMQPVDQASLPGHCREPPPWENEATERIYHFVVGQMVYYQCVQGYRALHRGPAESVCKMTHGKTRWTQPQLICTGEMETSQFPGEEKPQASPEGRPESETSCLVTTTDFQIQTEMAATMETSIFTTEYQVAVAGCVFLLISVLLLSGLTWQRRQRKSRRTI
T1 sequence 2: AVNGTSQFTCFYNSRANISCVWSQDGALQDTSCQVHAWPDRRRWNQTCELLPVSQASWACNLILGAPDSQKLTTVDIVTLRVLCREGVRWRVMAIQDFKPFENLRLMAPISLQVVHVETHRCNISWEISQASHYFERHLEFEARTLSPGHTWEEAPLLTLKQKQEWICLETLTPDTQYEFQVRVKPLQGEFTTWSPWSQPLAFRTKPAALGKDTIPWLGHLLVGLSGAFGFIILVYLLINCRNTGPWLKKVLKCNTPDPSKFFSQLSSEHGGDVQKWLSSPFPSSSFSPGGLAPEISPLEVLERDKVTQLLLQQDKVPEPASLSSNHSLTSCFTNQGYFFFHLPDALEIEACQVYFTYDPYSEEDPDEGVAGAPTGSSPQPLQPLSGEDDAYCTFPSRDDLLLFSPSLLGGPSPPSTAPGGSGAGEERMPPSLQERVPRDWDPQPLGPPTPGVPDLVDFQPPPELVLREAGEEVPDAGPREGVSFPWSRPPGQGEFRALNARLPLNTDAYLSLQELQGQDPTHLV
T1 sequence 3: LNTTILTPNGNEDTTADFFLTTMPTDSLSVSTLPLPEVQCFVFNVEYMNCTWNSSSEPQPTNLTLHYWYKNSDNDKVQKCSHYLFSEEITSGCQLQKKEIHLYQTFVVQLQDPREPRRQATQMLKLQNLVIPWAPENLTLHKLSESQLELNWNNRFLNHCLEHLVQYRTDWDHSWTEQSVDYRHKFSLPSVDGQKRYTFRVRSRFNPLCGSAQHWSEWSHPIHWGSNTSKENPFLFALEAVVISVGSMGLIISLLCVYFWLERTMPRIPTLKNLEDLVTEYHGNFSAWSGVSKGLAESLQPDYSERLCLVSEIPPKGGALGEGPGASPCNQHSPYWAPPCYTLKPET


target: T1, human IL-2 receptor (IL-2Rα/IL-2Rβ/γc); assay: cell-based or functional assay

| Binder | EC50 (nM) pSTAT5, NK, human PBMCs [nM] | EC50 (nM) pSTAT5, Treg, human PBMCs | Fold Max signal (% pSTAT5+) Treg/NK [fold] | Max signal (% pSTAT5+), NK [% pSTAT5+] | Max signal (% pSTAT5+), Treg [% pSTAT5+] | fold EC50 NK/Treg [fold] |
| --- | --- | --- | --- | --- | --- | --- |
| DC00082 (other) chain 1: QVQLVESGGGLVQAGGSLRLSCAASGGTFRTRNMGWFRRAPGKEREFVAAVSWNVDNKLYADSVKGRFTISRDNGRNMVYLQMNSLKPEDTAVYYCAADNIPLSSDMRPTATEYDYWGQGTQVTVSSDKTHTCPPCPAPEAAGGPSVFLFPPKPKDTLMISRTPEVTCVVVDVSHEDPEVKFNWYVDGVEVHNAKTKPREEQYNSTYRVVSVLTVLHQDWLNGKEYKCKVSNKALGAPIEKTISKAKGQPREPQVYTLPPSRDELTKNQVSLTCLVKGFYPSDIAVEWESNGQPENNYKTTPPVLDSDGSFLLYSKLTVDKSRWQQGNVFSCSVMHEALHNHYTQKSLSLSPGK chain 2: QVQLVESGGGLVQPGGSLRLSCATSGFTFRNNFMSWVRQAPGKGLEWVSTISYGGESTTYAESVKGRFTISRDNAKNTLYLQMNNLKPEDTAVYYCAKATSYDSIRSGSRGQGTQVTVSSGGGGSGGGGSGGGGSEVQLVESGGGLVQTGGSLRLSCAASGGTFSRDAMAWFRQVPGKEREFVALISWSGATTNYADSVKGRFAISRDNGKNTVYLQMNRLKPADTAIYYCAADRRPMGSRSYFEPTEYDDWGQGTQVTVSSGGGGSGGGGSGGGGSQVQLVESGGGLVQAGGSLTLSCAAPGRTFGTDVVGWFRQAPGKEREFVASISRSGDGIYYDDSVKGRFTISRNNAWNTVNLQMNSLKVEDTAVYYCAAGDGWSTYDYWGQGTQVTVSSGGGGSGGGGSGGGGSDKTHTCPPCPAPEAAGGPSVFLFPPKPKDTLMISRTPEVTCVVVDVSHEDPEVKFNWYVDGVEVHNAKTKPREEQYNSTYRVVSVLTVLHQDWLNGKEYKCKVSNKALGAPIEKTISKAKGQPREPQVYTLPPSRDELTKNQVSLTCLVKGFYPSDIAVEWESNGQPENNYKTTPPVLDSDGSFFLYSRLTVDKSRWQQGNVFSCSVMHEALHNHYTQKSLSLSPGK | 0.0227 | 0.848 pM | 2 | 2.11 | 4.57 | 27 |
| DC00083 (other) chain 1: QVQLVESGGGLVQAGGSLRLSCAASGGTFRTRNMGWFRRAPGKEREFVAAVSWNVDNKLYADSVKGRFTISRDNGRNMVYLQMNSLKPEDTAVYYCAADNIPLSSDMRPTATEYDYWGQGTQVTVSSDKTHTCPPCPAPEAAGGPSVFLFPPKPKDTLMISRTPEVTCVVVDVSHEDPEVKFNWYVDGVEVHNAKTKPREEQYNSTYRVVSVLTVLHQDWLNGKEYKCKVSNKALGAPIEKTISKAKGQPREPQVYTLPPSRDELTKNQVSLTCLVKGFYPSDIAVEWESNGQPENNYKTTPPVLDSDGSFLLYSKLTVDKSRWQQGNVFSCSVMHEALHNHYTQKSLSLSPGK chain 2: QVQLVESGGGLVQAGGSLTLSCAAPGRTFGTDVVGWFRQAPGKEREFVASISRSGDGIYYDDSVKGRFTISRNNAWNTVNLQMNSLKVEDTAVYYCAAGDGWSTYDYWGQGTQVTVSSGGGGSGGGGSGGGGSEVQLVESGGGLVQTGGSLRLSCAASGGTFSRDAMAWFRQVPGKEREFVALISWSGATTNYADSVKGRFAISRDNGKNTVYLQMNRLKPADTAIYYCAADRRPMGSRSYFEPTEYDDWGQGTQVTVSSGGGGSGGGGSGGGGSQVQLVESGGGLVQPGGSLRLSCATSGFTFRNNFMSWVRQAPGKGLEWVSTISYGGESTTYAESVKGRFTISRDNAKNTLYLQMNNLKPEDTAVYYCAKATSYDSIRSGSRGQGTQVTVSSDKTHTCPPCPAPEAAGGPSVFLFPPKPKDTLMISRTPEVTCVVVDVSHEDPEVKFNWYVDGVEVHNAKTKPREEQYNSTYRVVSVLTVLHQDWLNGKEYKCKVSNKALGAPIEKTISKAKGQPREPQVYTLPPSRDELTKNQVSLTCLVKGFYPSDIAVEWESNGQPENNYKTTPPVLDSDGSFFLYSRLTVDKSRWQQGNVFSCSVMHEALHNHYTQKSLSLSPGK | 0.496 | < 0.1 pM | 5 | 13 | 64.1 | > 4960 |
| DC00085 (other) chain 1: EVQLVESGGGLVQAGGSLRLSCAASGGSIYTYNMGWFRQAPGKEREFVAGTLWSGGDSVYADFAKGRFTLSRENAKNTLYLQMNSLKPEDTATYYCAIDPLSLTSDWRVDELSSWGKGTLVTVSSDKTHTCPPCPAPEAAGGPSVFLFPPKPKDTLMISRTPEVTCVVVDVSHEDPEVKFNWYVDGVEVHNAKTKPREEQYNSTYRVVSVLTVLHQDWLNGKEYKCKVSNKALGAPIEKTISKAKGQPREPQVYTLPPSRDELTKNQVSLTCLVKGFYPSDIAVEWESNGQPENNYKTTPPVLDSDGSFLLYSKLTVDKSRWQQGNVFSCSVMHEALHNHYTQKSLSLSPGK chain 2: EVQLVESGGGLVQTGGSLRLSCAASGGTFSRDAMAWFRQVPGKEREFVALISWSGATTNYADSVKGRFAISRDNGKNTVYLQMNRLKPADTAIYYCAADRRPMGSRSYFEPTEYDDWGQGTQVTVSSGGGGSGGGGSGGGGSQVQLVESGGGLVQPGGSLRLSCATSGFTFRNNFMSWVRQAPGKGLEWVSTISYGGESTTYAESVKGRFTISRDNAKNTLYLQMNNLKPEDTAVYYCAKATSYDSIRSGSRGQGTQVTVSSGGGGSGGGGSGGGGSQVQLVESGGGLVQAGGSLTLSCAAPGRTFGTDVVGWFRQAPGKEREFVASISRSGDGIYYDDSVKGRFTISRNNAWNTVNLQMNSLKVEDTAVYYCAAGDGWSTYDYWGQGTQVTVSSGGGGSGGGGSGGGGSDKTHTCPPCPAPEAAGGPSVFLFPPKPKDTLMISRTPEVTCVVVDVSHEDPEVKFNWYVDGVEVHNAKTKPREEQYNSTYRVVSVLTVLHQDWLNGKEYKCKVSNKALGAPIEKTISKAKGQPREPQVYTLPPSRDELTKNQVSLTCLVKGFYPSDIAVEWESNGQPENNYKTTPPVLDSDGSFFLYSRLTVDKSRWQQGNVFSCSVMHEALHNHYTQKSLSLSPGK | 0.663 | 0.0313 nM | 4 | 2.19 | 8.49 | 21 |
| DC00086 (other) chain 1: EVQLVESGGGLVQAGGSLRLSCAASGGSIYTYNMGWFRQAPGKEREFVAGTLWSGGDSVYADFAKGRFTLSRENAKNTLYLQMNSLKPEDTATYYCAIDPLSLTSDWRVDELSSWGKGTLVTVSSDKTHTCPPCPAPEAAGGPSVFLFPPKPKDTLMISRTPEVTCVVVDVSHEDPEVKFNWYVDGVEVHNAKTKPREEQYNSTYRVVSVLTVLHQDWLNGKEYKCKVSNKALGAPIEKTISKAKGQPREPQVYTLPPSRDELTKNQVSLTCLVKGFYPSDIAVEWESNGQPENNYKTTPPVLDSDGSFLLYSKLTVDKSRWQQGNVFSCSVMHEALHNHYTQKSLSLSPGK chain 2: QVQLVESGGGLVQPGGSLRLSCATSGFTFRNNFMSWVRQAPGKGLEWVSTISYGGESTTYAESVKGRFTISRDNAKNTLYLQMNNLKPEDTAVYYCAKATSYDSIRSGSRGQGTQVTVSSGGGGSGGGGSGGGGSQVQLVESGGGLVQAGGSLTLSCAAPGRTFGTDVVGWFRQAPGKEREFVASISRSGDGIYYDDSVKGRFTISRNNAWNTVNLQMNSLKVEDTAVYYCAAGDGWSTYDYWGQGTQVTVSSGGGGSGGGGSGGGGSEVQLVESGGGLVQTGGSLRLSCAASGGTFSRDAMAWFRQVPGKEREFVALISWSGATTNYADSVKGRFAISRDNGKNTVYLQMNRLKPADTAIYYCAADRRPMGSRSYFEPTEYDDWGQGTQVTVSSGGGGSGGGGSGGGGSDKTHTCPPCPAPEAAGGPSVFLFPPKPKDTLMISRTPEVTCVVVDVSHEDPEVKFNWYVDGVEVHNAKTKPREEQYNSTYRVVSVLTVLHQDWLNGKEYKCKVSNKALGAPIEKTISKAKGQPREPQVYTLPPSRDELTKNQVSLTCLVKGFYPSDIAVEWESNGQPENNYKTTPPVLDSDGSFFLYSRLTVDKSRWQQGNVFSCSVMHEALHNHYTQKSLSLSPGK | 0.187 | 0.00441 nM | 9 | 4.9 | 44.1 | 42 |
